# Results as given in US9688764B2, “Methods of treating breast cancer by administering anti-human prolactin receptor (PRLR) antibodies” (REGENERON PHARMACEUTICALS, INC., priority 2013, dated 2017).
# T1: T47D (native PRLR expressing cell line) (Homo sapiens, UniProt P16471)
# T1 construct: a native PRLR expressing cell line (T47D); endogenous in cells; host or cells: T47D
# T1 sequence (P16471 25-622): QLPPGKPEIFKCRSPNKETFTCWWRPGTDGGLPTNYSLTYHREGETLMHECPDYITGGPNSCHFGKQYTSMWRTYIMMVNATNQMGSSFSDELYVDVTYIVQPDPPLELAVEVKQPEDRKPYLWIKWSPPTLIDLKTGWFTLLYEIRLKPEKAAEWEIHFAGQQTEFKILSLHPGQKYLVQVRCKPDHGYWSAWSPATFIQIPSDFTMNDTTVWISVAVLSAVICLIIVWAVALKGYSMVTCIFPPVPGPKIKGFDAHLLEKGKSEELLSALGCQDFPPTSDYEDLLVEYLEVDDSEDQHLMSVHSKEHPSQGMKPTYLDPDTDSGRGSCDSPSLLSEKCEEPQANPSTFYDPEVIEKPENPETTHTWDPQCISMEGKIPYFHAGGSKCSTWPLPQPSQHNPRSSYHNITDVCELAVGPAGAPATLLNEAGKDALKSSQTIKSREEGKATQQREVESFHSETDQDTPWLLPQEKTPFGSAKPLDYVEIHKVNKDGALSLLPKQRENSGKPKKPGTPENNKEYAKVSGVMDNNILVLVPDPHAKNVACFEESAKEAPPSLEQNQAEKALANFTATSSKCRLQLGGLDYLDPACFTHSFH
# T2: HEK293/mPRLR (Mus musculus, UniProt Q08501)
# T2 construct: HA; expressed in transfected cells; host or cells: HEK293
# T2 sequence (Q08501 20-608): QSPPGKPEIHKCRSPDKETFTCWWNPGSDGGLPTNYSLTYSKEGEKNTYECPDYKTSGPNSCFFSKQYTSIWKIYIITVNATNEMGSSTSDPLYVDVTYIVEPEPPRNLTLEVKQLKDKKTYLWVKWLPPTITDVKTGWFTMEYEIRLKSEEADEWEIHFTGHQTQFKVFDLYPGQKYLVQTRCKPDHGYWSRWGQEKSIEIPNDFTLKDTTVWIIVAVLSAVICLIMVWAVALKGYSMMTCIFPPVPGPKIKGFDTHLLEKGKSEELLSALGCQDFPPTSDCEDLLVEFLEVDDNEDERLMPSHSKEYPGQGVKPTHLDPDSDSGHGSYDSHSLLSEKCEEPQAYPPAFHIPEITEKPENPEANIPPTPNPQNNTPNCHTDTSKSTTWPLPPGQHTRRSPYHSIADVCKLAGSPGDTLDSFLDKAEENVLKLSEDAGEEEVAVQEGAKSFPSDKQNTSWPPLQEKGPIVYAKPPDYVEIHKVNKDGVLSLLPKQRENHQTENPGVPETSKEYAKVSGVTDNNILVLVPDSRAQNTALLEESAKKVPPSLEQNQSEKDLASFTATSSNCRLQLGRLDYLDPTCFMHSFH
# T3: HEK293/hPRLR (Homo sapiens, UniProt P16471)
# T3 construct: HA; expressed in transfected cells; host or cells: HEK293
# T3 sequence (P16471 25-622): T1 sequence (P16471 25-622)
# B1: H1H6781P: anti-PRLR antibody, human IgG1 Fc; HCVR/LCVR SEQ ID NOs 50/58 (antibody, V domains shown)
# VH: EVQLVESGGDLVQPGESLRLSCTASGFTFNSYEMNWVRQAPGKGLEWVSYISSSGGTKYYVDSVKGRFTISRDNAKKSLYLQMNSLRADDTALYYCARLNGVDVFDIWGQGTMVTVSS
# VL: DIQMTQSPSSLSASVGDRVTITCRASQDIFNYLAWFQQKPGKVPELLISAASTLQSGVPSRFSGSGSGTYFTLTISSLQPEDIATYYCQRYNSAPLTFGGGTKVEIK
# modifications: human IgG1 Fc
# B2: H1H6774P: anti-PRLR antibody, human IgG1 Fc; HCVR/LCVR SEQ ID NOs 34/42 (antibody, V domains shown)
# VH: EVQLVESGGGLAQPGGSLRLSCVASGFTFSTYWMSWVRQAPGKGLDWVGNIKQDGSEQNYVDSVRGRFTISRDNAKNSLFLQMNSLRAEDTGVYYCATLLTKGDYWGQGTLVTVSS
# VL: DIQMTQSPSSLSASVGDSVTITCRASQDISNYLDWFQQKPGKAPKSLIYAASILQGGVPSRFSGSGYGTDFTLTISSLQPEDFATYYCRQYKTYPFTFGPGTKVDIK
# modifications: human IgG1 Fc
# B3: H1H6762P: anti-PRLR antibody, human IgG1 Fc; HCVR/LCVR SEQ ID NOs 2/10 (antibody, V domains shown)
# VH: QVQLVESGGGVVQPGRSLRLSCAASGFTFSHYGMVWVRQPPGKGLEWVALISFDGTTKYYADSVKGRFTISRDNSKNTLYLQMNSLRAEDTAVYFCVGAIAAAAFDLWGRGTLVTVSS
# VL: EIVMTQSPATLSVSPGERATLSCRASQSVSSDLAWYQQKPGQAPRLLIYSASARATGIPARFTGSGSGTDFTLTISSLQSEDFAVYYCQQYNNWPMYTFGQGTKLEIK
# modifications: human IgG1 Fc
# B4: H1H6782P: anti-PRLR antibody, human IgG1 Fc; HCVR/LCVR SEQ ID NOs 66/74; non-blocking (antibody, V domains shown)
# VH: EVQLVESGGGLVQPGRSLRLSCAASGFTFDDYAMHWVRQAPGKGLEWVSGIIWNSGHIGYGDSVKGRFTISRDNAKKSLYLQMNSLRAEDTALYYCARDSGRYQSYFDYWGQGTLVTVSS
# VL: DIQMTQSPSTLSASVGDRVTITCRASHIISSWLAWYQQKPGKAPKVLIFKASSLESGVPSRFSGSGSGTEFTLTISSLQPDDFATYYCQQYNTYSRTFGQGTKVEIK
# modifications: human IgG1 Fc
# Test system: HEK293/mfPRLR
# Test: FACS cell surface binding
# Set-up: species or system macaca fascicularis
# Method: (§1) The ability of anti-PRLR antibodies to selectively bind PRLR expressing cell lines was next determined. Human, monkey macaca fascicularis, and mouse PRLR constructs with an HA tag were stably introduced into HEK293 cells via Lipofectamine 2000-mediated transfection methodology. Transfectants (HEK293/hPRLR, HEK293/mfPRLR and HEK293/mPRLR) were selected for at least 2 weeks in complete growth media plus G418.
# (§2) Cell surface expression of PRLR on 293/hPRLR cells was assessed via FACS analysis. Briefly, 1×10^5 cells were incubated with 10 μg/ml of Control antibody I, or an isotype control for 30 min on ice in antibody dilution buffer. Following two washes with antibody dilution buffer, cells were incubated with 10 μg/ml of PE conjugated anti-human secondary antibodies for 30 min on ice. Following two additional washes, samples were run on a Hypercyt® cytometer and analyzed in FORECYT™ (IntelliCyt, Albuquerque, N. Mex.). The mean fluorescence intensities (MFI) were expressed as fold change above isotype control levels (background). FACS binding confirmed that Control I selectively bound to 293/hPRLR expressing cells with MFIs that were 30 fold above background (isotype ctrl) levels and less than 2 fold binding on parental cells.
# (§3) Next, the anti-PRLR antibodies of the present invention were tested via FACS for selective binding to the engineered overexpressing PRLR HEK293 cell lines, as well as to non-expressing HEK293 cells and a native PRLR expressing cell line (T47D).
# HEK293/mfPRLR, sequence (as listed by the source): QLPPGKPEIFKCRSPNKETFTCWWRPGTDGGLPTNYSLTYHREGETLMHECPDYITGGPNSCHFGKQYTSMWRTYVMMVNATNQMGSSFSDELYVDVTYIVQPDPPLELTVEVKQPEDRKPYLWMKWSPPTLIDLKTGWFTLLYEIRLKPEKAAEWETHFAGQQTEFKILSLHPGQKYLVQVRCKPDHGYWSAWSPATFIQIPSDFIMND
row,Molecule,FACS Cell Binding (Fold Above Background)
1,B1,26 Fold Above Background
2,B2,29 Fold Above Background
3,B3,26 Fold Above Background
4,B4,32 Fold Above Background

# Test system: HEK293 (non-expressing parental cells)
# Test: FACS cell surface binding
# Method: as §1, §2, §3
row,Molecule,FACS Cell Binding (Fold Above Background)
1,B1,1 Fold Above Background
2,B2,1 Fold Above Background
3,B3,1 Fold Above Background
4,B4,3 Fold Above Background

# Target: T1, T47D (native PRLR expressing cell line)
# Test: FACS cell surface binding
# Method: as §1, §2, §3
row,Molecule,FACS Cell Binding (Fold Above Background)
1,B1,40 Fold Above Background
2,B2,39 Fold Above Background
3,B3,38 Fold Above Background
4,B4,43 Fold Above Background

# Target: T2, HEK293/mPRLR
# Test: FACS cell surface binding
# Method: as §1, §2, §3
row,Molecule,FACS Cell Binding (Fold Above Background)
1,B1,1 Fold Above Background
2,B2,1 Fold Above Background
3,B3,2 Fold Above Background
4,B4,4 Fold Above Background

# Target: T3, HEK293/hPRLR
# Test: FACS cell surface binding
# Method: as §1, §2, §3
row,Molecule,FACS Cell Binding (Fold Above Background)
1,B1,37 Fold Above Background
2,B2,1 Fold Above Background
3,B3,36 Fold Above Background
4,B4,41 Fold Above Background
